# Assay results as given in US10111934.
# Target: IGF-I receptor (IGF-IR) on P6 cells, which overexpress IGF-IR (UniProt P08069)
# Assay: cell-based or functional assay
# Chain of UniProt P08069 (P08069 31-1367 limits assumed): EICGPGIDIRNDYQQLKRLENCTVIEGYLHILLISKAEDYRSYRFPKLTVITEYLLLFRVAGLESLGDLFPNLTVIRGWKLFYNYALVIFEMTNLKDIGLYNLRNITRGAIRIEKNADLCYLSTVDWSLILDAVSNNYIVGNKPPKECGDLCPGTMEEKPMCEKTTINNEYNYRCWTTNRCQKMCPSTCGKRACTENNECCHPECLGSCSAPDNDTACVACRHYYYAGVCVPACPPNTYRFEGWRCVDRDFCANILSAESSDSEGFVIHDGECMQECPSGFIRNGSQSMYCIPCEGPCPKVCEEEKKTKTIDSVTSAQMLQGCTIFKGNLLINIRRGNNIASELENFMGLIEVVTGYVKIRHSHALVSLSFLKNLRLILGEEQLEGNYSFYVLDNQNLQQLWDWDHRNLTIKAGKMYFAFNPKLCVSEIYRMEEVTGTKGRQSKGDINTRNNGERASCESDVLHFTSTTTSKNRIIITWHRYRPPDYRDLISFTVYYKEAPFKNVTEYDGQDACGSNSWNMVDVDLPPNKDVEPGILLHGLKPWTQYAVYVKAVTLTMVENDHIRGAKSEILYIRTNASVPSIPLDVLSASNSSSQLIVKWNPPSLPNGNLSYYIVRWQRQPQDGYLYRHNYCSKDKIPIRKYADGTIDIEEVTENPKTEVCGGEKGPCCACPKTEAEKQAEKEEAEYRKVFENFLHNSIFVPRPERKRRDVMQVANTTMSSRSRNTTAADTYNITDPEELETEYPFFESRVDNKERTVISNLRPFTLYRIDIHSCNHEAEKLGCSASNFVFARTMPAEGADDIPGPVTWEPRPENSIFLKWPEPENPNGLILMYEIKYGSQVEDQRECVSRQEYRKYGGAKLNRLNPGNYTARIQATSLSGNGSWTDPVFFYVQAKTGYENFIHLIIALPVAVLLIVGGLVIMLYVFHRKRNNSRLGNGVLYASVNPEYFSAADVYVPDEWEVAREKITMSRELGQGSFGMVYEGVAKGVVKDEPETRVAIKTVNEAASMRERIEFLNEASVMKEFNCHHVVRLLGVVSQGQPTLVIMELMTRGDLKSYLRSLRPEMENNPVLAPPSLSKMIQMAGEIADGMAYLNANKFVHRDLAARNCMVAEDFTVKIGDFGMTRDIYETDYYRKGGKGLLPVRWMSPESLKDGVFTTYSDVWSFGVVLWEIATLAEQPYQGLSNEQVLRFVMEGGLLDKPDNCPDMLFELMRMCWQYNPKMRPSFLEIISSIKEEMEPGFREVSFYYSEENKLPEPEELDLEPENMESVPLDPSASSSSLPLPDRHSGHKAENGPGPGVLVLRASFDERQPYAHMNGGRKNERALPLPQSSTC
KIRA (rel to IStop),"KIRA Raw (IGF-IR phosphorylation, KIRA assay on P6 cells, conditioned medium)",KIRA/Total IGF,Substance,also measured
0.93,42.6,44.4,"IGF-IKRRNN (IGF-IA with K68G, R71A, R77A, N92D, N100D; produces only pro-IGF-I) (from UniProt P05017 49-153) (ligand)","IGF-IR response in Kinase Receptor Activation (KIRA) assays, against mature IGF-I: 30 % more"
0.59,45.8,28.2,"IGF-IA (murine class I IGF-IA, wild-type construct) (from UniProt P05017 49-153) (ligand)","IGF-IR phosphorylation per IGF molecule against mature IGF-I (KIRA, 4 experiments): 30 % less"
0.61,23.6,29.3,"IGF-IKRR (IGF-IA with K68G, R71A, R77A, cleavage blocked) (from UniProt P05017 49-153) (ligand)","IGF-IR phosphorylation per IGF molecule against mature IGF-I (KIRA, 4 experiments): 30 % less"
–,–,–,pro-IGF-I (non-glycosylated pro-IGF-IA: mature IGF-I plus EA-peptide) (from UniProt P05017 1-153) (ligand),"calculated relative IGF-IR activation by pro-IGF-I (P), mature IGF-I set to 1.0, from the NN equation: 0.84; calculated relative IGF-IR activation by pro-IGF-I (P), mature IGF-I set to 1.0, mean of the NN and KRRNN equations: 0.89"
0.88,65.8,42.4,"IGF-INN (IGF-IA with N92D and N100D, glycosylation blocked) (from UniProt P05017 49-153) (ligand)",–
1,39,47.9,"mature IGF-I (murine), produced from the IGF-ISt construct (from UniProt P05017 49-118) (ligand)",–
–,–,–,gly-pro-IGF-I (glycosylated pro-IGF-IA) (from UniProt P05017 1-153) (ligand),"calculated IGF-IR activation (KIRA, FIG. 5B), potency against mature IGF-I (fold less potent): 2; calculated relative IGF-IR activation by gly-pro-IGF-I (GP), mature IGF-I set to 1.0, from the IA equation: 0.3; calculated relative IGF-IR activation by gly-pro-IGF-I (GP), mature IGF-I set to 1.0, from the KRR equation: 0.47; calculated relative IGF-IR activation by gly-pro-IGF-I (GP), mature IGF-I set to 1.0, mean of the IA and KRR equations: 0.38"
